Data set [1] relates to E. coli strain MCM531 (BL21 PL.2-mKKDyI). As to the kind of experiment: Growth inhibition of MCM531 by mevalonic acid. Type of data set: cell-based, Escherichia coli. As to conditions: TM3 medium with 1% glucose and yeast extract; 0, 1, 5, 10, 15 or 20 mM MVA; OD600, quadruplicate. As to the method:
An overnight culture of MCM531 (see strain description) was back-diluted to an OD600 of 0.05 (this corresponds to an OD600 of approx 0.005 in a 96-well plate reader) (SpectraMax M2, Molecular Devices). The diluted culture was then aliquotted into separate wells in a 96-well deep-well plate into standard TM3 medium (13.6 g K2PO4, 13.6 g KH2PO4, 2.0 g MgSO4*7H2O) supplemented with 1% glucose and 0.8 g/L Biospringer yeast extract (1% Yeast extract final)) with 0, 1, 5, 10, 15 or 20 mM MVA added. […] Each MVA concentration was assayed in quadruplicate, error bars were negligible.

Data set [2] addresses P. alba isoprene synthase (IspS), full length, C-terminally TEV and His-tagged (MD09-165), FL(+)TEV, SEQ ID NO:134 (Populus alba, UniProt Q50L36). Particulars: DMAPP 0.625 to 40 mM, 50 mM MgCl2, pH 8, 30° C., 15 min; ± S.D., triplicate. As to the method:
(§1) The relative specific activity was determined and the kinetics of “N-terminally truncated” P. alba isoprene synthases were examined compared to “Full length” P. alba isoprene synthases. Four strains expressing four different constructs were used in this analysis: BL21(λDE3) pLysS with P. alba pET24a; MD09-173; MD09-165; and MD09-167 (Strains described above in detail). These strains express “full length” P. alba IspS, “truncated” P. alba IspS (the MEA truncation), “full length” C-terminally TEV and His-tagged P. alba IspS, and “truncated” C-terminally TEV and His-tagged P. alba IspS, respectively. In the experiments described below, “truncated” refers specifically to the MEA variant of P. alba IspS.
(§2) All strains were inoculated into LB containing 30 mg/L chloramphenicol(Cm) and 50 mg/L kanamycin and grown overnight in 2 mL culture tubes at 37° C. The overnight cultures were diluted 1:100 in 25 mL of LB broth containing 30 mg/L chloramphenicol(Cm) and 50 mg/L kanamycin the following morning and grown at 37° C. until OD˜0.5. Each strain was grown in triplicate. The cultures were then induced with 400 uM IPTG and incubated at 30° C. for 4 hours.

In data set [3] the target is P. alba isoprene synthase (IspS), truncated MEA variant, C-terminally TEV and His-tagged (MD09-167), MEA(+)TEV, SEQ ID NO:132 (Populus alba, UniProt Q50L36). Particulars: DMAPP 0.625 to 40 mM, 50 mM MgCl2, pH 8, 30° C., 15 min; ± S.D., triplicate (2.5 mM DMAPP in duplicate). As to the method: as §1, §2
Sequence of P. alba isoprene synthase (IspS), truncated MEA variant, C-terminally TEV and His-tagged (MD09-167), MEA(+)TEV, SEQ ID NO:132 (Q50L36 with tags, fused parts or gaps): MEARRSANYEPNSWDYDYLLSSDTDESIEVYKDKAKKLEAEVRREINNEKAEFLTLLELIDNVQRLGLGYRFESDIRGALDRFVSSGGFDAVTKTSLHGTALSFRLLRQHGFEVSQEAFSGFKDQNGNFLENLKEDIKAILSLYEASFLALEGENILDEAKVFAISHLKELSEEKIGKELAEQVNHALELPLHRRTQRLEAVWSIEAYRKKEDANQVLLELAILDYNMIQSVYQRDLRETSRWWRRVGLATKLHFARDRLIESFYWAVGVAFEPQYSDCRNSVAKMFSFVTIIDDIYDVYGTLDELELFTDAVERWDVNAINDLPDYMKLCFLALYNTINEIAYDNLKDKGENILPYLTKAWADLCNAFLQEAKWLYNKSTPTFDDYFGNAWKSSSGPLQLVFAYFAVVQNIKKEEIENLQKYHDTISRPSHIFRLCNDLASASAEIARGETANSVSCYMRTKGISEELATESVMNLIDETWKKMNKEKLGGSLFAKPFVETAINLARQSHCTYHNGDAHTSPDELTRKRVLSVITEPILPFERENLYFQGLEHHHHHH
Substrate in data set [4]: CC(C)=CCOP(=O)(O)OP(=O)(O)O
As to the kind of experiment: purified protein, by the assay type. As to conditions: other: DMAPP 0.625 to 40 mM, 50 mM MgCl2, pH 8, 30° C., 15 min, ± S.D., triplicate.

Sequence of P. alba isoprene synthase (IspS), full length, C-terminally TEV and His-tagged (MD09-165), FL(+)TEV, SEQ ID NO:134 (Q50L36 with tags, fused parts or gaps): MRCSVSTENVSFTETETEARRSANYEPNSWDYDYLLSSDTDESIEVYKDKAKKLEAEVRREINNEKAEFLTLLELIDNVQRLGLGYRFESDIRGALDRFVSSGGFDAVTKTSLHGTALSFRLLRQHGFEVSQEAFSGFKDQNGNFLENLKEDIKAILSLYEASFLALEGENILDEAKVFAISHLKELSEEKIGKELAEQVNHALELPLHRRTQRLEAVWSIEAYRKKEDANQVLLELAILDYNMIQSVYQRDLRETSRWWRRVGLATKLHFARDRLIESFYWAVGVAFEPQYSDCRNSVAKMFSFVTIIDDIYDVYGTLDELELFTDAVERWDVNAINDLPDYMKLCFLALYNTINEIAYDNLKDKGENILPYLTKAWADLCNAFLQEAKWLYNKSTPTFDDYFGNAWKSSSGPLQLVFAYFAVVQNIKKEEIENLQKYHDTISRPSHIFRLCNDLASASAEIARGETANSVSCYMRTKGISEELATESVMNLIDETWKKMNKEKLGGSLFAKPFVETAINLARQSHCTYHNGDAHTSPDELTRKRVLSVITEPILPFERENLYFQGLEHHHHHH

`C[C@@](O)(CCO)CC(=O)O` [MVA, Mevalonic Acid]: the “concentration at which growth was severely inhibited” value in data set [1] is at least 5 mM.
In the case of `CC(C)=CCOP(=O)(O)OP(=O)(O)O` [DMAPP, 3,3-dimethylallyl pyrophosphate], the KM in data set [2] was 2400 ± 500 µM; in data set [3], 2000 ± 1000 µM.

B1: P. alba isoprene synthase (IspS), N-terminally truncated MEA variant, untagged (MD09-173, pDu39), SEQ ID NO:122 (Populus alba) (protein)
chain: MEARRSANYEPNSWDYDYLLSSDTDESIEVYKDKAKKLEAEVRREINNEKAEFLTLLELIDNVQRLGLGYRFESDIRGALDRFVSSGGFDAVTKTSLHGTALSFRLLRQHGFEVSQEAFSGFKDQNGNFLENLKEDIKAILSLYEASFLALEGENILDEAKVFAISHLKELSEEKIGKELAEQVNHALELPLHRRTQRLEAVWSIEAYRKKEDANQVLLELAILDYNMIQSVYQRDLRETSRWWRRVGLATKLHFARDRLIESFYWAVGVAFEPQYSDCRNSVAKMFSFVTIIDDIYDVYGTLDELELFTDAVERWDVNAINDLPDYMKLCFLALYNTINEIAYDNLKDKGENILPYLTKAWADLCNAFLQEAKWLYNKSTPTFDDYFGNAWKSSSGPLQLVFAYFAVVQNIKKEEIENLQKYHDTISRPSHIFRLCNDLASASAEIARGETANSVSCYMRTKGISEELATESVMNLIDETWKKMNKEKLGGSLFAKPFVETAINLARQSHCTYHNGDAHTSPDELTRKRVLSVITEPILPFER
As to B1, in data set [4], the Km stood at 1800 ± 200 µM and the kcat is 1.5 s⁻¹.

B2: P. alba isoprene synthase (IspS), full length, untagged, SEQ ID NO:120 (Populus alba) (protein)
chain: MRCSVSTENVSFTETETEARRSANYEPNSWDYDYLLSSDTDESIEVYKDKAKKLEAEVRREINNEKAEFLTLLELIDNVQRLGLGYRFESDIRGALDRFVSSGGFDAVTKTSLHGTALSFRLLRQHGFEVSQEAFSGFKDQNGNFLENLKEDIKAILSLYEASFLALEGENILDEAKVFAISHLKELSEEKIGKELAEQVNHALELPLHRRTQRLEAVWSIEAYRKKEDANQVLLELAILDYNMIQSVYQRDLRETSRWWRRVGLATKLHFARDRLIESFYWAVGVAFEPQYSDCRNSVAKMFSFVTIIDDIYDVYGTLDELELFTDAVERWDVNAINDLPDYMKLCFLALYNTINEIAYDNLKDKGENILPYLTKAWADLCNAFLQEAKWLYNKSTPTFDDYFGNAWKSSSGPLQLVFAYFAVVQNIKKEEIENLQKYHDTISRPSHIFRLCNDLASASAEIARGETANSVSCYMRTKGISEELATESVMNLIDETWKKMNKEKLGGSLFAKPFVETAINLARQSHCTYHNGDAHTSPDELTRKRVLSVITEPILPFER
B2: in data set [4], the Km amounted to 2400 ± 300 µM and the kcat was 0.72 s⁻¹.

Source of the values: patent US8916370B2, “Isoprene synthase variants for improved microbial production of isoprene” (Danisco US Inc., priority 2008, dated 2014).
